Tested on: Escherichia coli TOP10
Experiment: shrunken log2 fold change of peptide-encoding DNA abundance (4.5 h post-induction vs induction); higher = less antimicrobial activity (less host growth inhibition)
Conditions: time post-induction: 4.5 h; library: site-saturation at positions 5, 18, 19, 20
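Also: peptides expressed intracellularly from a pBAD plasmid library in pooled LB shake-flask culture, induced with 0.3% L-arabinose, DNA abundance read by NGS, three biological replicates, DESeq2 with apeglm shrinkage.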

| Sequence | shrunken log2 fold change |
| --- | --- |
| RRIRHRPPRLPRPRPRPVLTPRP | -0.107 |
| RRIRHRPPRLPRPRPRPVMWPRP | 0.21 |
| RRIRHRPPRLPRPRPRPVPFPRP | -0.136 |
| RRIRHRPPRLPRPRPRPVPIPRP | 0.0935 |
| RRIRHRPPRLPRPRPRPVPNPRP | -8.36e-05 |
| RRIRHRPPRLPRPRPRPVRPPRP | 0.365 |
| RRIRHRPPRLPRPRPRPVSYPRP | -0.00133 |
| RRIRHRPPRLPRPRPRPVTKPRP | -0.055 |
| RRIRHRPPRLPRPRPRPVVDPRP | -0.109 |
| RRIRHRPPRLPRPRPRPVVGPRP | 0.0224 |
| RRIRHRPPRLPRPRPRPVVSPRP | -0.137 |
| RRIRHRPPRLPRPRPRPVWMPRP | -0.243 |
| RRIRHRPPRLPRPRPRPVYDPRP | -0.202 |
| RRIRHRPPRLPRPRPRPVYGPRP | -0.528 |
| RRIRHRPPRLPRPRPRPWADPRP | -0.36 |
| RRIRHRPPRLPRPRPRPWCHPRP | -0.00107 |
| RRIRHRPPRLPRPRPRPWFPPRP | -0.379 |
| RRIRHRPPRLPRPRPRPWHAPRP | -0.0793 |
| RRIRHRPPRLPRPRPRPWICPRP | -0.0191 |
| RRIRHRPPRLPRPRPRPWIIPRP | 0.00956 |
| RRIRHRPPRLPRPRPRPWITPRP | -0.118 |
| RRIRHRPPRLPRPRPRPWKKPRP | -0.0699 |
| RRIRHRPPRLPRPRPRPWLGPRP | -0.0973 |
| RRIRHRPPRLPRPRPRPWLYPRP | -0.217 |
| RRIRHRPPRLPRPRPRPWNAPRP | -0.0678 |

| Sequence | shrunken log2 fold change |
| --- | --- |
| RRIRHRPPRLPRPRPRPWPAPRP | 0.292 |
| RRIRHRPPRLPRPRPRPWRTPRP | -0.229 |
| RRIRHRPPRLPRPRPRPWSVPRP | -0.125 |
| RRIRHRPPRLPRPRPRPWSWPRP | -0.304 |
| RRIRHRPPRLPRPRPRPWVVPRP | -0.48 |
| RRIRHRPPRLPRPRPRPWYLPRP | -0.748 |
| RRIRHRPPRLPRPRPRPYAIPRP | -0.149 |
| RRIRHRPPRLPRPRPRPYAMPRP | -0.416 |
| RRIRHRPPRLPRPRPRPYAQPRP | -0.279 |
| RRIRHRPPRLPRPRPRPYDWPRP | -0.0123 |
| RRIRHRPPRLPRPRPRPYEMPRP | -0.383 |
| RRIRHRPPRLPRPRPRPYFDPRP | -0.422 |
| RRIRHRPPRLPRPRPRPYFQPRP | -0.935 |
| RRIRHRPPRLPRPRPRPYGDPRP | -0.808 |
| RRIRHRPPRLPRPRPRPYHEPRP | -0.0135 |
| RRIRHRPPRLPRPRPRPYHRPRP | -0.00968 |
| RRIRHRPPRLPRPRPRPYISPRP | -0.0543 |
| RRIRHRPPRLPRPRPRPYIYPRP | -0.347 |
| RRIRHRPPRLPRPRPRPYLAPRP | -0.00514 |
| RRIRHRPPRLPRPRPRPYNVPRP | -0.0512 |
| RRIRHRPPRLPRPRPRPYNWPRP | -0.928 |
| RRIRHRPPRLPRPRPRPYPKPRP | -0.193 |
| RRIRHRPPRLPRPRPRPYRRPRP | -0.142 |
| RRIRHRPPRLPRPRPRPYRVPRP | -0.0718 |
| RRIRHRPPRLPRPRPRPYSLPRP | -0.319 |

| Sequence | shrunken log2 fold change |
| --- | --- |
| RRIRHRPPRLPRPRPRPYTGPRP | -0.304 |
| RRIRHRPPRLPRPRPRPYVMPRP | 0.0288 |
| RRIRHRPPRLPRPRPRPYVVPRP | 0.0242 |
| RRIRHRPPRLPRPRPRPYYFPRP | -0.178 |
| RRIRIRPPRLPRPRPRPACCPRP | -0.086 |
| RRIRIRPPRLPRPRPRPACHPRP | -0.12 |
| RRIRIRPPRLPRPRPRPADPPRP | -0.071 |
| RRIRIRPPRLPRPRPRPADTPRP | -0.347 |
| RRIRIRPPRLPRPRPRPAEEPRP | -0.084 |
| RRIRIRPPRLPRPRPRPAEGPRP | -0.122 |
| RRIRIRPPRLPRPRPRPAEIPRP | -0.484 |
| RRIRIRPPRLPRPRPRPAGAPRP | 0.359 |
| RRIRIRPPRLPRPRPRPAGIPRP | -0.437 |
| RRIRIRPPRLPRPRPRPAGRPRP | 0.132 |
| RRIRIRPPRLPRPRPRPAHMPRP | -0.303 |
| RRIRIRPPRLPRPRPRPAHWPRP | 0.396 |
| RRIRIRPPRLPRPRPRPAIRPRP | -0.161 |
| RRIRIRPPRLPRPRPRPAKFPRP | -0.158 |
| RRIRIRPPRLPRPRPRPALVPRP | 0.228 |
| RRIRIRPPRLPRPRPRPAMLPRP | -0.22 |
| RRIRIRPPRLPRPRPRPAMVPRP | -0.547 |
| RRIRIRPPRLPRPRPRPAPAPRP | 0.31 |
| RRIRIRPPRLPRPRPRPAPTPRP | 0.219 |
| RRIRIRPPRLPRPRPRPAQCPRP | 0.211 |
| RRIRIRPPRLPRPRPRPAQKPRP | -0.00244 |

— the supplement of paper PMC9112550, “Optimization of the antimicrobial peptide Bac7 by deep mutational scanning” (BMC Biology, 2022)
